# Data as given in the supplement of paper PMC10126150.
# ± gives the standard deviation of the averaged measurements.
# Tested on: ATP
# Assay: switch fluorescence ratio, 500 uM ATP over buffer (Cy3 cluster intensity, sum of 5 cycles each) (fold (ratio)); higher = stronger signal-on switching upon ATP binding; sequences stand for … in TCGTCGGCAGCGTCAGATGTGTATAAGAGACAGTTTTTTTTTTTTTTTTTTTTTTTTT…TC
# Settings: aptamer strand: ATP DNA aptamer (quencher-CACCTGGGGGAGTATTGCGGAGGAAGG + anchor), 100 nM annealed; ATP concentration: 500 uM
# How it was run: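 The fluorescence ratio divides summed target-cycle Cy3 intensity by summed buffer-cycle Cy3 intensity for each cluster and is averaged per switch-domain sequence. Cy3-labelled switching-strand clusters on a modified Illumina MiSeq flow-cell were annealed to 100 nM quencher-labelled ATP aptamer, then imaged in selection buffer and again after 15 min with 500 uM ATP at 22 °C. Five such cycles were run, with NaOH stripping and re-annealing between them, and clusters outside 100-1000 RFU were excluded.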
# 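Note: ATP exposure 15 min at 22 °C before imaging.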
row,Sequence,switch fluorescence ratio
1,GTGGTTAGAA,0.9841 ± 0.0025
2,GTGGTTAGGG,1.01 ± 0.041
3,GTGGTTAGGT,1 ± 0.034
4,GTGGTTATCG,1.02 ± 0.043
5,GTGGTTCCCG,1 ± 0.0099
6,GTGGTTGGCA,0.968 ± 0.033
7,GTGGTTTGAC,0.99 ± 0.013
8,GTGGTTTGGC,1.01 ± 0.09
9,GTGGTTTTTG,0.968 ± 0.025
10,GTGTAAACGT,1.04 ± 0.05
11,GTGTAAGGG,1.03 ± 0.031
12,GTGTAATTGG,1.018 ± 0.0058
13,GTGTACTCGA,1.04 ± 0.019
14,GTGTAGATTA,1.02 ± 0.014
15,GTGTAGGGAT,0.964 ± 0.015
16,GTGTATAGAT,1.01 ± 0.011
17,GTGTATTTTT,0.99 ± 0.024
18,GTGTCAACGT,0.978 ± 0.017
19,GTGTCAACTA,0.987 ± 0.016
20,GTGTCCGGTA,0.983 ± 0.037
21,GTGTCTGAGC,0.966 ± 0.031
22,GTGTGAACGG,0.958 ± 0.018
23,GTGTGACTCG,1.03 ± 0.062
24,GTGTGAGTTA,0.992 ± 0.034
25,GTGTGATTTT,0.992 ± 0.028

row,Sequence,switch fluorescence ratio
1,GTGTGCAACT,1.02 ± 0.024
2,GTGTGCTGTG,1.01 ± 0.063
3,GTGTGCTTAG,1.027 ± 0.004
4,GTGTGCTTTG,0.998 ± 0.048
5,GTGTGGAGGT,0.964 ± 0.016
6,GTGTGGATTC,0.998 ± 0.013
7,GTGTGGGCTG,1.0001 ± 0.0002
8,GTGTGTCTCT,0.999 ± 0.016
9,GTGTTAACTG,0.984 ± 0.028
10,GTGTTAGGGA,1.01 ± 0.015
11,GTGTTAGTCG,1.02 ± 0.1
12,GTGTTATGGG,0.978 ± 0.037
13,GTGTTATTGA,0.97161 ± 0.00039
14,GTGTTATTTT,0.998 ± 0.053
15,GTGTTCAACG,0.994 ± 0.04
16,GTGTTCGACG,0.995 ± 0.056
17,GTGTTCGAGT,0.986 ± 0.034
18,GTGTTCTTAT,1.01 ± 0.011
19,GTGTTGGGGG,0.984 ± 0.039
20,GTGTTTAAAA,0.995 ± 0.013
21,GTGTTTAGCT,0.992 ± 0.044
22,GTGTTTGGGT,0.978 ± 0.03
23,GTGTTTGGTT,1.01 ± 0.053
24,GTGTTTTTGA,1.01 ± 0.034
25,GTTAAAAGGC,0.986 ± 0.023

row,Sequence,switch fluorescence ratio
1,GTTAACCGGA,1.01 ± 0.012
2,GTTAACGCGT,1.02 ± 0.02
3,GTTAATGTCG,1.056 ± 0.0053
4,GTTACAAGAG,0.9955 ± 0.0077
5,GTTACACTCA,1.032 ± 0.002
6,GTTACGAGTT,0.977 ± 0.012
7,GTTACTGGAA,1.04 ± 0.02
8,GTTACTGTTC,0.98 ± 0.13
9,GTTACTTGTA,0.978 ± 0.025
10,GTTAGAAATG,1.01 ± 0.011
11,GTTAGAAGGT,1 ± 0.018
12,GTTAGAAGTG,0.9855 ± 0.006
13,GTTAGACGGT,1.02 ± 0.041
14,GTTAGACTCA,1.01 ± 0.014
15,GTTAGAGAGG,0.9779 ± 0.0078
16,GTTAGAGCGG,1.02 ± 0.031
17,GTTAGCGGGG,0.9823 ± 0.0048
18,GTTAGGAATT,0.985 ± 0.032
19,GTTAGGAGTC,0.992 ± 0.018
20,GTTAGGCCCT,1 ± 0.014
21,GTTAGGCGGT,1.01 ± 0.014
22,GTTAGGGGAT,1 ± 0.011
23,GTTAGGTATT,0.93 ± 0.023
24,GTTAGGTGTG,1.11 ± 0.13
25,GTTAGGTTGC,1.01 ± 0.046

row,Sequence,switch fluorescence ratio
1,GTTAGGTTTG,0.997 ± 0.029
2,GTTAGTAGGA,1.02 ± 0.019
3,GTTAGTTGGA,0.964 ± 0.025
4,GTTATAGTTT,0.985 ± 0.014
5,GTTATATTG,1.01 ± 0.031
6,GTTATCTTTC,1.07 ± 0.029
7,GTTATGGGGC,0.966 ± 0.043
8,GTTATTAATT,0.983 ± 0.0036
9,GTTATTATGG,1.013 ± 0.0084
10,GTTATTATTA,0.993 ± 0.019
11,GTTATTGAAG,0.982 ± 0.022
12,GTTATTGAGT,1.007 ± 0.0089
13,GTTATTGTGT,0.999 ± 0.028
14,GTTATTGTTC,0.975 ± 0.016
15,GTTCAAGGGC,0.996 ± 0.032
16,GTTCAGGGGA,1.27 ± 0.41
17,GTTCATGCAG,0.993 ± 0.024
18,GTTCATTGTT,0.941 ± 0.017
19,GTTCCTGTGG,1.0156 ± 0.00081
20,GTTCGAAGGG,0.987 ± 0.013
21,GTTCGTTAGC,0.988 ± 0.004
22,GTTCTAAGTA,0.957 ± 0.0039
23,GTTCTCCTT,1.07 ± 0.1
24,GTTCTTTTTC,0.978 ± 0.019
25,GTTGAAGGCA,1.01 ± 0.022

row,Sequence,switch fluorescence ratio
1,GTTGAATCAT,0.992 ± 0.017
2,GTTGAATTTT,1.01 ± 0.032
3,GTTGACGGGT,0.971 ± 0.025
4,GTTGACGTTG,0.991 ± 0.054
5,GTTGAGGGTA,1 ± 0.034
6,GTTGAGTTGA,1.01 ± 0.021
7,GTTGAGTTTT,0.962 ± 0.03
8,GTTGATAACT,1.009 ± 0.0012
9,GTTGATAAGA,0.982 ± 0.035
10,GTTGATCAT,0.983 ± 0.015
11,GTTGATTTGG,0.981 ± 0.015
12,GTTGATTTTG,0.981 ± 0.042
13,GTTGCAAGAA,1.13 ± 0.06
14,GTTGCAATTT,1.16 ± 0.13
15,GTTGCAGGAA,0.992 ± 0.04
16,GTTGCAGTGT,1.02 ± 0.037
17,GTTGCGAAGG,0.983 ± 0.02
18,GTTGCGAGGT,0.9872 ± 0.004
19,GTTGGAAACT,1.04 ± 0.017
20,GTTGGAATGT,1.03 ± 0.018
21,GTTGGACAGA,1.03 ± 0.015
22,GTTGGACCAA,1.021 ± 0.0027
23,GTTGGAGGGG,0.985 ± 0.03
24,GTTGGAGGTG,1.06 ± 0.012
25,GTTGGAGGTT,0.9921 ± 0.0052

row,Sequence,switch fluorescence ratio
1,GTTGGAGTTA,0.976 ± 0.023
2,GTTGGATTGG,0.996 ± 0.019
3,GTTGGATTTC,1.01 ± 0.047
4,GTTGGCACTG,1.036 ± 0.0053
5,GTTGGCGAGT,1.01 ± 0.032
6,GTTGGCGGGC,0.997 ± 0.036
7,GTTGGGAGGG,0.985 ± 0.012
8,GTTGGGCGGA,0.993 ± 0.029
9,GTTGGGGATG,1.02 ± 0.026
10,GTTGGGGCGG,1.01 ± 0.057
11,GTTGGGGCTC,1.01 ± 0.04
12,GTTGGGGGGA,1 ± 0.033
13,GTTGGGGGTC,0.995 ± 0.011
14,GTTGGGTGGA,1.0356 ± 0.00032
15,GTTGGGTGGT,0.968 ± 0.01
16,GTTGGTACGT,1.01 ± 0.03
17,GTTGGTCTAT,0.9778 ± 0.0064
18,GTTGGTGAGT,0.989 ± 0.015
19,GTTGGTGCAC,0.98 ± 0.04
20,GTTGGTGGTG,0.9719 ± 0.0029
21,GTTGGTTAAT,0.966 ± 0.054
22,GTTGGTTGGA,0.983 ± 0.022
23,GTTGGTTTGT,0.986 ± 0.019
24,GTTGGTTTTC,0.99 ± 0.036
25,GTTGTAGACA,0.9847 ± 0.0048

row,Sequence,switch fluorescence ratio
1,GTTGTAGTCG,1.02 ± 0.038
2,GTTGTATGAT,0.9841 ± 0.0096
3,GTTGTATTTT,0.989 ± 0.022
4,GTTGTCCATA,1.015 ± 0.0029
5,GTTGTGATCT,0.989 ± 0.015
6,GTTGTGATGT,1 ± 0.013
7,GTTGTGCATA,1.02 ± 0.03
8,GTTGTGGGGT,0.976 ± 0.025
9,GTTGTGGTGT,1.02 ± 0.014
10,GTTGTGTGTA,0.9921 ± 0.0082
11,GTTGTGTGTG,0.974 ± 0.041
12,GTTGTTAACT,0.999 ± 0.048
13,GTTGTTATGG,0.988 ± 0.017
14,GTTGTTCGGT,1.01 ± 0.015
15,GTTGTTTAAT,1.006 ± 0.0081
16,GTTGTTTAGG,0.953 ± 0.023
17,GTTGTTTGCG,0.953 ± 0.023
18,GTTTAACTAT,1.015 ± 0.0038
19,GTTTAAGGAG,1.02 ± 0.066
20,GTTTAAGGCC,1.01 ± 0.043
21,GTTTAAGGCT,1.02 ± 0.088
22,GTTTAAGGGT,0.996 ± 0.055
23,GTTTAAGGTT,1.08 ± 0.2
24,GTTTACATTG,0.985 ± 0.042
25,GTTTACTATA,1.06 ± 0.049

row,Sequence,switch fluorescence ratio
1,GTTTAGACGT,1.01 ± 0.011
2,GTTTAGGGGT,1.03 ± 0.081
3,GTTTAGGTTT,1 ± 0.019
4,GTTTAGTC,0.976 ± 0.025
5,GTTTATATCC,1.02 ± 0.013
6,GTTTATCGCT,1.023 ± 0.0077
7,GTTTATGGAC,1.02 ± 0.011
8,GTTTATTCGC,0.998 ± 0.043
9,GTTTATTGAA,1.024 ± 0.0036
10,GTTTCACGGT,1.003 ± 0.0079
11,GTTTCAGTGT,0.972 ± 0.021
12,GTTTCATTTT,1.01 ± 0.012
13,GTTTCGCGAC,1.19 ± 0.026
14,GTTTCGGGGG,0.9895 ± 0.006
15,GTTTCTTCGA,0.973 ± 0.013
16,GTTTGAATAT,0.984 ± 0.047
17,GTTTGAGGGC,0.985 ± 0.052
18,GTTTGATCAG,0.941 ± 0.011
19,GTTTGCAACG,0.986 ± 0.021
20,GTTTGCCCTG,0.99 ± 0.022
21,GTTTGCTATT,0.992 ± 0.032
22,GTTTGCTGGT,1 ± 0.015
23,GTTTGGAGGC,1.01 ± 0.016
24,GTTTGGAGGG,0.979 ± 0.029
25,GTTTGGAGGT,0.992 ± 0.03
